# From the nanobody polyreactivity screen of Harvey et al. (2022)
# Test: yeast display, Sf9 membrane polyspecificity reagent, FACS + sequencing; frameworks hold sequencing errors
# Summary of the method: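 Genes from sorted yeast were amplified by colony PCR, read by MiSeq 2 × 250 sequencing and filtered on CDR length. These cells carried a synthetic nanobody library in Saccharomyces cerevisiae BJ5465 and were sorted by FACS into low and high (top ~1%) gates on anti-HA and streptavidin fluorescence. Polyreactivity is labelled according to the gate of origin.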
row,Sequence,polyreactivity (PSR sort gate)
1,QVQLVESGGAKVQAGGSLRLSCAASGRTFDYYVMGWNRQAPVKEREFVAAITWSGDSTYYADSVKGRFTISRENAKNTVYLQMNSLKPEDTAVYYCNADYYPTTFYAFVYMYDYWGQGTQVTVSS,low polyreactivity
2,QVQLVESGGALDQAGGSLRLICAASGRIFWYNAMGWYRQAPGKERELVAGIRSGGSTNYADSVKGRFTISRDNAKNPVYLQMNSLKPEDTAVYYCAARRWRTQDRSHFYYWGQGTQVTVSS,low polyreactivity
3,QVQLVESGGALDQAGGSLRLSCAASGFFRYAMGSYRQAPGKERELVAAITSGGRTNYADSVKGRFTISRDNAKNTVYLQMNSLKPEDTAVYNCAADQGSRSEELDYWGQGTQVTVSS,low polyreactivity
4,QVQLVESGGALDQAGGSLRLSCAASGSTFVVNAMGWYIQAPGKERELVAGITTSGGSTYYADSVKGRFTISRDNAKTTVYLQMNSLKPEDTAVYYCAARRWPYVYRFRAYSGFDYWGQGTHVTVSS,low polyreactivity
5,QVQLVESGGALDQARGSLSLSCAASGFLFGQNAMVWSRQAPGKLREFVATNNRSGGSTYYADSVKGRFTISRDNAKNTVYVQMNSLKPEDTAVYYCAKGPRMSSSLRYSAYWIMNYWGQGTQVTVSS,high polyreactivity
6,QVQLVESGGALGQAGGSLRLSCAASGFTFRIYDMGWYRHAPGKETELVAAITNGGSTDYADSVKGRFTISRDNAKNTVYLQMNSLKPEDTAVYYCAADVTYQVYDLVSVWYDYWGQGTQVTVSS,low polyreactivity
7,QVQLVESGGALVHAGGSLRLSCAASGSIFYQYDMGWYRQAPLKERELVAAISRSGTRTYYEDSVKGRFTISRDNAKNTVYLKMNSLKPEDTAVYYCARRYRSGYGYWGQGTQVTVSS,high polyreactivity
8,QVQLVESGGALVQAGGRLRLSCAASGTFERKVMGWYIHAPGKERELVAAISRSGSSTYYADSLKGRFTISRDNAKNTVYLQMNSLKPEDTAVYYCAARGTKQHFNYWGQGTQVTVSS,high polyreactivity
9,QVQLVESGGALVQAGGSHRLSCAASGRTFHFNAMGWYRPATGKERELVAAITNSGGRTSYADSVKGRFTISRDNAKNTVYLQMNSMKPEDTAVYYCNVEVTYSSGKYDYWGPGTQVTVSS,low polyreactivity
10,QVQLVESGGALVQAGGSLRISCAASGRTFQVNTMGWYRQAPGKEMELVAAISSAGRTYYADSVKGRFTISRDNAKNTVYLQMNSLKPEDTAVYYCSAAWSYSYWKARYGYWGQGTQVTVSS,high polyreactivity
11,QVQLVESGGALVQAGGSLRLICAASGSIFGHNAMGWYRQAPGKERELVAAISRGTRTNYADSVKGRFTISRDNAKNTFYVQMNSLKQVDSAVYYCNLQPGRGPYVGRKYGYWGQGTQVTVSS,high polyreactivity
12,QVQLVESGGALVQAGGSLRLICAASGSTFDSNVKGWSRTAPGKERELVAVINGSGSNTYYADSVKGRFTISRDNAKNTVYLQMNSLKPEDTAVYYCNKRYWGGRYGYDYWGQGTQVTVSS,high polyreactivity
13,QVQLVESGGALVQAGGSLRLSCAASARIFGRNAMGWYTQAPGKERELVAAISSGGSTYYADSVKGRFTISRDNAKKTVYLQMNSLKPEDTAVYYCAVRGYYFNGGRAFESWGQGTQVTVSS,high polyreactivity
14,QVQLVESGGALVQAGGSLRLSCAASGFIFDAYAMGWYRQAPGKERELVPAIDYSGGNTYYADSVKGRFTISRDYAKNTVYLQMNSLKTEDTAVYYCNADYAGSFWSREYDYWGQGTQVTVSS,low polyreactivity
15,QVQLVESGGALVQAGGSLRLSCAASGFTFAWYAMGWYRQAPGKERELVAAISRSGGSTYYADSVKGRFTISRDNAKNTVYLQMNSLKPEDTAVYYCATRVYSYRKAGWYDYWGQGTQVTVSS,high polyreactivity
16,QVQLVESGGALVQAGGSLRLSCAASGFTFRTYAMGWYRQAPRKERELVADISGSGGSTYYADSVKGRFTISRDNPKNTVYLQMNSLKPEDTAVSYCAADYASWSNWGYEYWGQGTQVTVSS,high polyreactivity
17,QVQLVESGGALVQAGGSLRLSCAASGGILQYNAMGWYRQAPGKEREFVAAITTSGGSTYYADSVKGRFTISRDNAKNTVYLQMNSLKPEDTAVYYCAADSWWGIYYSGYDYWGQGSQVTVSS,low polyreactivity
18,QVQLVESGGALVQAGGSLRLSCAASGIIFYSYAMGWYRQAPGKERELVAAISNNGGSTYADSVKGRFTISRDNAKNSVYLQMKSVKPEDTAVYYCAADPTGGVGFDGYYWGQGTQVTVSS,low polyreactivity
19,QVQLVESGGALVQAGGSLRLSCAASGLTFEVYAMGWYRQAPGKESELVAAISSGGGSTYYADSVKGRFTISRDNAKNTVYLQMNSLKPEDTEVYYCNAVAKLYYWRYDYWGKGTQVTVSS,low polyreactivity
20,QVQLVESGGALVQAGGSLRLSCAASGRIFRKNAMGWYRQAPGKERELGAAISGGGGSTYYAVSVKGRFTISRDNAKNTVYLQMNSLQPEDTAVYYCNAPILPGYWGQGTQVTVSS,high polyreactivity
21,QVQLVESGGALVQAGGSLRLSCAASGRIFWHNAMGWYRQAPGKERELVAAISSRGGSTSYADSVKGLFTISRDNAKNTVYLQMNSLKPEETAVYYCNARNQAYYRVWGYRGDYWGQGTQVTVSS,low polyreactivity

row,Sequence,polyreactivity (PSR sort gate)
1,QVQLVESGGALVQAGGSLRLSCAASGRTYWSYNIGWYRKAPGKERELVAAITSSGGTTNYADSVKGRFTISRDNAKNTVYLQMNRLKREDTAVYYFAAYSWYFGSRYDYWGQGTQVTVSS,low polyreactivity
2,QVQLVESGGALVQAGGSLRLSCAASGSIFRYYAMGWYRQAPVKERELVAAIDFSGGRTYYADSVKGRFTISRDNAKNTVYLQMNRLKPEDTAVYDCARKYTTAYGSTFYYWGQGTQVSVSS,high polyreactivity
3,QVQLVESGGALVQAGGSLRLSCAASGSIFSRNAMGWYRTAPGKERELVAGISTGGSTNYADSVKGRFTISRDNAKNTVYLQMTSLKPEDTAVYYCAAPLAYEGDYWGQGTQVTVSS,low polyreactivity
4,QVQLVESGGALVQAGGSLRLSCAASGSIFVPYTMGWYRQAPGKERELVSSISYSGGTTYYADSVKGRFTISRDYAKNTVYLQMNSLKPEDTAVYYCAADWDESYSYRRYSHYDYWGQGTQVTVSS,low polyreactivity
5,QVQLVESGGALVQAGGSLRLSCAASGSTFGRYAMGWYRQAPGKERELVATIRSGGSTTYADSVKGRFTISRDNAKNTVYLQMNSLKREDTAVYYCAAGTKPSYYYWGQGTQVTVSS,low polyreactivity
6,QVQLVESGGALVQAGGSLRLSCAASGSTFHRNAMGWYRQAPGKERELVAAITSGGSTNYADSVKGRFTISRDNAMNTVYLQLNSLKPEDTAVYSCAKDYRHYNRGWYDYWGQGTQVTVSS,low polyreactivity
7,QVQLVESGGALVQAGGSLRLSCAASGSTIGDNAMGWYRQAPGKERELVASISWSGASTYYADSVKGRFTISRDNAKNTFYLPMKSLKPEETEVYYCAVYYSYFSHLYHLLFYYWGQGTQVTVSS,low polyreactivity
8,QVQLVESGGALVQAGGSLRLSCAASGSTLRANAMGWYRQAPGKERELVARITSGGSTYYADSVKGRFTISRDNAKNTVYFQMNSLKPEDTAVYYCAATYKLAYRRGYWGQGTQVTVSS,high polyreactivity
9,QVQLVESGGALVQAGGSLRLSCDASGSTLWDYAMGWYRQAPRKERELVAASTQSTGDTHYADSVKGRFTLSRDNAKNTVYFQMNSLKPEDTAVYYCAADSYLSVYDPYGYWGQGTQVTVSS,low polyreactivity
10,QVQLVESGGALVQAGGSLRLTCAASGRTLYLYAMGWYRQAPGKEREFVAAINSSGDSTYYADSVKGRFTISRDNAKNTVYLQMNSLNPEDTAVYYCNVAWFRHEYDYWGQGTQVTVSS,low polyreactivity
11,QVQLVESGGALVQAGGSLRVSCAASGRIFRRNAMGWDRPAPGKERELVAGIDRSGGSTYYADSVKRRFTISRDNGKKTVYIQMNSLKPEDTAVYYCNTRAPYRVKSSGYWGLGTQVTVSS,high polyreactivity
12,QVQLVESGGALVQAGGSVRLSCAASGRTFGTYAMGWYRQAPGKERELVAAISTRGGRTFYADSVKGRFTISRDNAKNTVYLQMNSLKPEDTAVYYCAAYYKYYEYDYWGQVTQVTVSS,high polyreactivity
13,QVQLVESGGCIVQAGGSLRLSCAASGFTFRTNTKGWYRQAPGKDRELVAAISRSGGSTYYADSVKGRFTISRDNAKNTVYLQMNSLKPEDTAVYDCNAVGRSDSYYLAYNYWGQGTQVTVSS,high polyreactivity
14,QVQLVESGGCIVQAGGSLRLSCAASGRTFRAYAMGWYRQAPGKEREFVAAITKRGGGTYYADSVKGRFTISRDNAKNTVYLQMNILKPEDTAVYYCAAESGSWYSRMDYWGQGTQVTVSS,high polyreactivity
15,QVQLVESGGCIVQAGVSLRLSCSSSGRTFGYNAMGLYRNAPGKERELVAAINWSGASKYYADSVKGRFTISRDNAKNTVYLQMNSLKPEDTAVYYCAADYSYIYGFDYWGQGTQVTVSS,low polyreactivity
16,QVQLVESGGCLDQAGGSLRLSCAASGFTFYNYAMGWYRQEPGKETQLVAAITRNGGRTYYADSVKWRFTISRDNAKYTVYLQMNSLKPEDTAFYYCASKKYKTVRYDYWGQGTQGTVSS,high polyreactivity
17,QVQLVESGGCLVPAGGSLRLSCAASGHTFSSYAMGWYRQAPGKERELVAAISVSATRTYYADSVKGRFTISRDNAKNTVYLQMNSLKPEDTAVFYCAARPVQFTYGYWGQGTQVTVSS,high polyreactivity
18,QVQLVESGGCLVQAGCSHRLSCAASGSTFGHNAMGWYRQAPGKERELVAAISWSGGRTSYADSVKGRFTISRDHAKNTVYLQLNSLKPEDTAVYYCAARSWRKGDYWGQGTQVTVSS,high polyreactivity
19,QVQLVESGGCLVQAGCSLRLSCAASGRIFGYYVMGWYRQAPGKERELVAAIRSSADSTYYADSVKGRFTISRDNAKNTVYLQMNSLKPEDTAVYYCAAQSPAYYTKSYWGQGTQVTVSS,low polyreactivity
20,QVQLVESGGCLVQAGCSRRLSCAASVRIFARNTMGWSRQAPGKERELVAAISWGGGRTYYADSVKGRFTISRDNAKNTVYLQMNSLKPEDTAVYYCAAETLQIPRGEYWGQGTQVTVSS,low polyreactivity
